The test system of one data set is SVP70. The data set is described as follows: Inhibitory activities of various compounds to SVP70 (cleavage of peptide GPSFRAPDS). The class given is biochemical, Streptoverticillium mobaraense. The following applies: analogously to (3)-vi); concentrations shown in FIG. 5. The protocol: (§1) The enzyme solution was added to 20 mM sodium phosphate buffer containing peptide GPSFRAPDS (Peptide Institute) (SEQ ID NO: 11) to yield 170 μl of total liquid volume, and it was reacted at 30° C. for 10 minutes, followed by heating at 95° C. for 5 minutes to terminate the reaction. 80 μl of this solution was analyzed by HPLC under the following conditions and its activity was calculated based on the decreased amount of the substrate.
(§2) To 20 mM sodium phosphate buffer (pH 7.0) containing various compounds at the concentrations shown in FIG. 5, the purified enzyme solution was added and left for 60 minutes at room temperature. Then Gly-Pro-Ser-Phe-Arg-Ala-Pro-Asp-Ser (SEQ ID NO: 11) was added as a substrate and reacted for 10 minute at 30° C. The relative activity by adding each compound was calculated based on the Gly-Pro-Ser-Phe-Arg-Ala-Pro-Asp-Ser (SEQ ID NO: 11) cleavage activity in the absence of compounds as 100%.
The inhibitory activities of various compounds to SVP70 were examined analogously to (3)-vi).

In a further data set the test system is SVP35. The data set is described as follows: Inhibitory activities of various compounds to SVP35 (cleavage of peptide GPSFRAPDS). It counts as biochemical, Streptoverticillium mobaraense. The following applies: concentrations shown in FIG. 5; 60 minutes at room temperature, then substrate 10 minute at 30° C., pH 7.0. The protocol: as §1, §2
For another data set, the system named is insulin B and pro-MTG. The data set is described as follows: Substrate specificity (cleavage points, HPLC and sequencing of fragments). The class given is biochemical. The following applies: 30° C., 2 hours, pH 7.5. The protocol:
1 mg/ml of insulin B solution and pro-MTG solution prepared in 20 mM Tris-HCl buffer (pH 7.5) containing 5 mM calcium chloride and 0.01 mM zinc chloride was used as a substrate, and an enzyme solution was added to the solution to react at 30° C. for 2 hours, and then peptide fragments were separated by HPLC under the following conditions:
The amino acid sequences of the obtained peptide fragments were analyzed by PPSQ-10 (Shimadzu Co. Ltd.) to characterize the sequences of the cleavage points for SVP35.
The substrate specificity was examined similarly as described in (3)-i).

In the next data set the test system is pro-MTG. The data set is described as follows: Conversion of pro-MTG into active MTG, substrate:enzyme 200:1 (SDS-PAGE, hydroxamate method). The class given is biochemical, Streptoverticillium mobaraense. The following applies: substrate:enzyme=200:1, 30° C. The protocol:
Using pro-MTG (1 mg/ml) expressed by Corynebacterium glutamicum as a purified substrate, the neutral protease (SVP35, SVP70) from Streptoverticillium mobaraense or the neutral metalloprotease SGMP II from Streptomyces griseus was mixed in the ratio of the substrate:the enzyme=200:1, the mixture was reacted at 30° C. After 0, 1, 2, 4, 7, 20 hours, the reaction mixture was sequentially picked up, and the aliquots of the reaction mixture were mixed with SDS-PAGE sample buffer and heated at 95° C. for 3 minutes, and then subjected to SDS-PAGE according to Laemmli's method (Nature, 227, 680-685 (1970)). […] In addition, SGMP II was purified from actinase (Kakenseiyaku Co. Ltd.) according to the reference method (J. Biocem., Vol. 110, p. 339-344, 1991).

For data set [1], the system named is Gly-Pro-Ser-Phe-Arg-Ala-Pro-Asp-Ser (SEQ ID NO: 11). Nature of the data set: Optimum pH of the protease (peptide cleavage in GTA buffer pH 3 to pH 10). It counts as biochemical. The protocol: as §1
In 0.15 M GTA buffer (buffered by 3,3-dimethyl glutaric acid, Tris (hydroxy methyl) amino methane, 2-amino-2-methyl-1,3-propanediol) from pH 3 to pH 10, SVP35 was allowed to act on Gly-Pro-Ser-Phe-Arg-Ala-Pro-Asp-Ser (SEQ ID NO: 11) as a substrate at 30° C. for 10 minutes.
The Optimum pH of SVP70 was examined similarly as (3)-ii).

Data set [2] has the same test system. The data set is described as follows: Optimum temperature of the protease. It counts as biochemical. The protocol: To the purified enzyme solution diluted with 20 mM Tris-HCl buffer (pH 7.5) containing 5 mM calcium chloride and 0.01 mM zinc chloride Gly-Pro-Ser-Phe-Arg-Ala-Pro-Asp-Ser (SEQ ID NO: 11) was added and reacted at pH 7.0, between 5° C. and 65° C. for 10 minutes. As a result, it was shown that the Optimum temperature of SVP35 was about 45° C. and it had high activity within the range of 40° C. to 50° C.
The Optimum temperature of SVP70 was examined similarly as (3)-iv). As a result, it was shown that the Optimum temperature of SVP70 was within the range from about 50° C. to 55° C., especially around 55° C. (see FIG. 3).

For data set [3] the test system is unchanged. Nature of the data set: Temperature stability of the protease. The following applies: 15 minutes; activity treated at 4° C. defined as 100%. The class given is physicochemical. The protocol:
To 10 μl of the purified enzyme solution, 40 μl of 20 mM Tris-HCl buffer (pH 7.5) containing 5 mM calcium chloride and 0.01 mM zinc chloride was added to treat at 4° C. or at from 30° C. to 70° C. for 15 minutes, and then cooled by ice, added 250 μl of 20 mM sodium phosphate buffer (pH 7.0). To this enzyme solution, Gly-Pro-Ser-Phe-Arg-Ala-Pro-Asp-Ser (SEQ ID NO: 11) was added as a substrate and reacted at 30° C. for 5 minutes. When the activity treated at 4° C. was defined as 100%, the remaining activity at each temperature was calculated. […] (see FIG. 4).

Data set [4] has the same test system. Nature of the data set: pH stability of the protease. The class given is physicochemical. The protocol:
To 10 μl of SVP35 purified enzyme solution, 40 μl of each pH of 0.15 M GTA buffer from pH 3 to pH 10 was added, left at 4° C. overnight, followed by addition of 0.1 M sodium phosphate buffer (pH 7.0) to the liquid volume of 400 μl, and was adjusted to pH 7.0. To these enzyme solutions, Gly-Pro-Ser-Phe-Arg-Ala-Pro-Asp-Ser (SEQ ID NO: 11) was added as a substrate, and reacted at pH 7.0, at 30° C. for 10 minutes.
The pH stability was examined similarly to (3)-iii).

The mark [5] stands for this setting: activity at pH 7.0 defined as 100%.

The results in this text go back to patent US8105802B2, “Method of producing microbial transglutaminase” (Ajinomoto Co., Inc., priority 2003, dated 2012).

Where only a bound is given, the exact number is not on record here.

With `O[C@H](CS)[C@H](O)CS` (racemic) [dithiothreitol], the “inhibition of SVP70 activity” value in the data set with SVP70 is recorded as “strong inhibitory action”.

On to `c1cnc2c(c1)ccc1cccnc12` [1,10-phenanthroline], for which the “inhibition of SVP35 Gly-Pro-Ser-Phe-Arg-Ala-Pro-Asp-Ser cleavage activity” value in the data set with SVP35 is on record as “strongly inhibited”. For the same molecule, the “inhibition of SVP70 activity” value in the data set with SVP70 is recorded as “strong inhibitory action”.

Regarding `O=C(O)CN(CCN(CC(=O)O)CC(=O)O)CC(=O)O` [ethylene diamine tetraacetic acid], the “inhibition of SVP35 Gly-Pro-Ser-Phe-Arg-Ala-Pro-Asp-Ser cleavage activity” value in the data set on SVP35 was “strongly inhibited”. The “inhibition of SVP70 activity” value in the data set with SVP70 is on record as “strong inhibitory action”.

Regarding `CC(C)C[C@H](NP(=O)(O)O[C@@H]1O[C@@H](C)[C@H](O)[C@@H](O)[C@H]1O)C(=O)N[C@@H](Cc1c[nH]c2ccccc12)C(=O)O` [phosphoramidon], in the data set with SVP35, the “inhibition of SVP35 Gly-Pro-Ser-Phe-Arg-Ala-Pro-Asp-Ser cleavage activity” value is listed as “strongly inhibited”. Further, in the data set with SVP70, the “inhibition of SVP70 activity” value is recorded as “strong inhibitory action”.

For the molecule `NC(N)=O` [urea], in the data set on SVP70, the “inhibition of SVP70 activity” value is given as “strong inhibitory action”.

B1: Streptomyces subtilisin inhibitor (SSI): Streptomyces subtilisin inhibitor derived from actinomycetes (protein)
chain: DAPSALYAPSALVLTVGKGVSATTAAPERAVTLTCAPGPSGTHPAAGSACADLAAVGGDLNALTRGEDVMCPMVYDPVLLTVDGVWQGKRVSYERVFSNECEMNAHGSSVFAF
With B1, in the data set on SVP35, the “inhibition of SVP35 Gly-Pro-Ser-Phe-Arg-Ala-Pro-Asp-Ser cleavage activity” value was “strongly inhibited”. For the same molecule, the “inhibition of SVP70 activity” value in the data set on SVP70 is reported as “strong inhibitory action”.

B2: SVP35: neutral metalloprotease of about 35,000 from the cell surface of Streptoverticillium mobaraense IFO13819 (SEQ ID NO: 6) (protein)
chain: VLRLTATPRTTALRAAALVASAAMVVVGVQTGSASASGDRDSGGLPLTLSASQRTAAIQEAQSGASATAAKIGLSGKEKLIARDVVKDADGTVHTRYERTYDGLPVLGGDLIVHEAKAGRSVTKANDATIALPSTDASLAPAAAKKSALSAAADQKTAKADGQAPRKVVWAAQGKPVLAYETVVTGVQKDGTPSELHVITDAASGKKLYQYEAIETGTGTSTYSGTVPLTTTKSGSQYQLNDGARGGHKTYDLNQGTSGTGSLFTNSTDTWGGGRQTAGVDAHYGAAVTWDFYKNVFGRNGIRNDGKAAYSRVHYGNSYVNAFWSDSCFCMTYGDGQNNKNPLTALDVAAHEMSHGVTAATAKLVYSGESGGLNEATSDIFGTAVEFYANNKTDVGDYLIGEKINIYGDGKPLRYMDKPSKDGKSKDSWYSGIGGVDVHYSSGPANHFFYLLSEGSGKKTINGVDYDSPTADGSKVTGIGRDKAQKIWYKALTTQFTSNTNYAKARTGTLNAAASLYGNNSAEYKAVAAAWSAINVK
modifications: Streptoverticillium mobaraense
As for B2, in the data set with insulin B and pro-MTG, the “amino acids recognized at the cleavage site” value is “aromatic amino acids and hydrophobic amino acids with bulky side-chains positioned at P′ 1”; the “cleavage points (residue before which the substrate is cleaved)” value is listed as “especially Phe, often Leu, sometimes Tyr, Trp, Ile, Val”. In the data set on pro-MTG, the “transglutaminase (TG) activity of the picked up fraction, hydroxamate method” value is “sufficient activity was confirmed”. Besides, in the data set on pro-MTG (0-20 hours), the “conversion of pro-MTG to the mature form (SDS-PAGE)” value is reported as “converted to the mature forms”. Further, the “reduction of produced MTG after long-term reaction” value in the data set on pro-MTG (up to 20 hours) is listed as “not reduced even after a long-term reaction”. For the same molecule, the “Optimum pH” value in data set [1] (0.15 M GTA buffer pH 3 to pH 10, 30° C., 10 minutes) was “around 7.0”. Also, in data set [1] (setting [5]), the “activity at pH 6.0-8.0” value is listed as at least 70% and the “activity at pH 6.5-7.5” value was at least 80%. The “activity within 40° C. to 50° C. relative to that at 45° C.” value in data set [2] (pH 7.0, 10 minutes) is reported as at least 80%. The Optimum temperature result in data set [2] (pH 7.0, between 5° C. and 65° C., 10 minutes) was “about 45 °C”. For the same molecule, in data set [3], the “remaining activity after treatment at 50° C.” value came out at 80% and the “remaining activity after treatment at 60° C.” value is “lost its activity”. The “activity after treatment at pH 4-10” value in data set [4] (activity at pH 4.0 defined as 100%) is reported as at least 90%. Also, in data set [4] (left at 4° C. overnight at each pH, then reacted at pH 7.0, 30° C., 10 minutes), the “pH Stability (stable pH range)” value was 4-10.
